In US10590193 (dated 2020) one finds binding result, Kd and EC50 data, which are given here for 4 molecules.

Experiment [1] deals with T1, human VEGF165 (human, UniProt P15692).
T1 chain: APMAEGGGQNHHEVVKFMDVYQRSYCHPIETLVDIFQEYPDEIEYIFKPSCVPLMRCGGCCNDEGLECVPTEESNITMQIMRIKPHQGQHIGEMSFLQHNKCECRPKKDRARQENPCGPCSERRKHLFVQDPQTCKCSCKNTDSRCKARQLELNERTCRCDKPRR
The experiment is described as follows: SPR, pH 5. A general note: Surface plasmon resonance follows binding to a sensor surface in real time, without labels.

The target of experiment [2] is T1, human VEGF165. The experiment is described as follows: SPR, pH 7.4.
Experiment [3] has as its target T1, human VEGF165. The experiment is described as follows: competition, VEGFR2 ELISA. In general terms: ELISA stands for enzyme-linked immunosorbent assay.
Experiment [4] concerns the target T1, human VEGF165. The experiment is described as follows: SPR, pH 5.
Another experiment deals with T2, human VEGF110 (human, UniProt P15692).
T2 chain: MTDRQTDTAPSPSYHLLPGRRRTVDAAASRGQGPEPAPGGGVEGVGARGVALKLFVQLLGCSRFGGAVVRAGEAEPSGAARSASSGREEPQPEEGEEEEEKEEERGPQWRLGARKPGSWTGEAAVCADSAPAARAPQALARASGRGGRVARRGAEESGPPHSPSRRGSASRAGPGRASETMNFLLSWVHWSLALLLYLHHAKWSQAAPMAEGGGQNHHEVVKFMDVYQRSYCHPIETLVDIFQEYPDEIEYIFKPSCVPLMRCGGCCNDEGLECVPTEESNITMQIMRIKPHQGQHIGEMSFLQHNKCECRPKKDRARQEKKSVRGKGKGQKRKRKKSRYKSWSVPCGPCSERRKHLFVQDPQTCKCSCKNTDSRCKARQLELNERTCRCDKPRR
The experiment is described as follows: SPR, pH 5.

In another experiment the target is T3, human PlGF (human, UniProt P49763).
T3 chain: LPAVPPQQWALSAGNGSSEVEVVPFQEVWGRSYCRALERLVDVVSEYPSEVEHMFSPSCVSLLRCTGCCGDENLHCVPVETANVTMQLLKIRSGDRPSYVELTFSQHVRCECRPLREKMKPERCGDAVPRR
The experiment is described as follows: SPR, pH 5.

In another experiment the target is T4, human VEGF121 (human, UniProt P15692).
T4 chain: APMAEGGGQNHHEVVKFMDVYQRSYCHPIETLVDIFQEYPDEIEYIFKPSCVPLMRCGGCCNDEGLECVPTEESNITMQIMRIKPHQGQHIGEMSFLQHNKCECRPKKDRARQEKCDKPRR
The experiment is described as follows: SPR, pH 5.

For experiment [5], the target named is T5, rat VEGF164 (rat, UniProt P16612).
T5 chain: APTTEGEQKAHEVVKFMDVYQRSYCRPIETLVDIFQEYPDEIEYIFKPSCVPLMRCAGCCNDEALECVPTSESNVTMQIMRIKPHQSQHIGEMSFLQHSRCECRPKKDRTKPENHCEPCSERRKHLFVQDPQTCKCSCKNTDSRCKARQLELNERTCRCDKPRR
The experiment is described as follows: SPR, pH 5.

Experiment [6] addresses T6, mouse VEGF164 (mouse, UniProt Q00731).
T6 chain: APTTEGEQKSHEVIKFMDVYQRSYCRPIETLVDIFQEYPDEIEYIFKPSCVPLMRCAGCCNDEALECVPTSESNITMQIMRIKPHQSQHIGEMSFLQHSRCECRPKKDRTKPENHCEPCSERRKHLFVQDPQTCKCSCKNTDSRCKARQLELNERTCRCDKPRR
The experiment is described as follows: SPR, pH 5.

The target of experiment [7] is T1, human VEGF165. The experiment is described as follows: SPR, pH 7.4.
The target in experiment [8] is T6, mouse VEGF164. The experiment is described as follows: SPR, pH 7.4.
For experiment [9], the target named is T5, rat VEGF164. The experiment is described as follows: SPR, pH 5.
In experiment [10] the target is T1, human VEGF165. The experiment is described as follows: SPR, pH 5.
Experiment [11] addresses T5, rat VEGF164. The experiment is described as follows: SPR, pH 7.4.
Experiment [12] concerns the target T6, mouse VEGF164. The experiment is described as follows: SPR, pH 5.

B1: 435-min (antibody, V domains shown)
VH: EVQLVESGGGLVQPGGSLRLSCAASGFSLNTNYWMCWVRQAPGKGLEWVSCMYTGSYNRAYYASWAKGRFTISRDNSKNTLYLQMNSLRAEDTAVYYCAKGSNWYSDLWGQGTLVTVSS
VL: EIVMTQSPSTLSASVGDRVIITCQASQSIGSSLAWYQQKPGKAPKLLIYTAANLASGVPSRFSGSGSGAEFTLTISSLQPDDFATYYCQNFATSDTVTFGQGTKLTVLG
What is called Kd is a measure of binding affinity in units of concentration. Low readings indicate tighter binding, high ones weaker binding. With B1, the binding result in the experiment with human VEGF165 [1] is recorded as “no binding”. The same molecule registered a dissociation constant Kd with human VEGF165 [2] of 28900 pM.

B2: 511-max (antibody, V domains shown)
VH: EVQLVESGGGLVQPGGSLRLSCTVSGFSLNTYYMNWVRQAPGKGLEWVGIIAPDDTTYYASWAKSRSTISRDTSKNTVYLQMNSLRAEDTAVYYCARSGDTTAWGADIWGQGTLVTVSS
VL: EIVMTQSPSTLSASVGDRVIITCQASQSINIWLSWYQQKPGKAPKLLIYRASTLASGVPSRFSGSGSGTEFTLTISSLQPDDFATYYCQANYAYSAGYGAAFGQGTKLTVLG
What is called EC50 is the concentration giving half of the maximal effect. B2 gave an EC50 with human VEGF165 [3] of 822 pM. Further, the Kd in the experiment with human VEGF165 [4] is 66.7 pM; in the experiment with human VEGF110, 197 pM; with human VEGF121, 214 pM; with rat VEGF164 [5], 106 pM; with mouse VEGF164 [6] it was 61.3 pM; in the experiment with human VEGF165 [2] it was 85.6 pM. The binding result with human PlGF is recorded as “no binding”.

B3: 610-min (antibody, V domains shown)
VH: EVQLVESGGGLVQPGGSLRLSCAASGIDFSGAYYMGWVRQAPGKGLEWVSYIDYDGDRYYASWAKGRFTISRDNSKNTLYLQMNSLRAEDTAVYYCAKSDYSSGWGTDIWGQGTLVTVSS
VL: EIVMTQSPSTLSASVGDRVIITCQASQSISSWLSWYQQKPGKAPKLLIYQASTLASGVPSRFSGSGSGAEFTLTISSLQPDDFATYYCQNNYGFRSYGGAFGQGTKLTVLG
Turning to B3, the binding result with human VEGF165 [7] is on record as “no binding”. The dissociation constant (Kd) with human VEGF165 [4] amounted to 10600 pM.

B4: 578minmax (903) (antibody, V domains shown)
VH: EVQLVESGGGLVQPGGSLRLSCTASGFSLTDYYYMTWVRQAPGKGLEWVGFIDPDDDPYYATWAKGRFTISRDTSKNTVYLQMNSLRAEDTAVYYCAGGDHNSGWGLDIWGQGTLVTVSS
VL: EIVMTQSPSTLSASVGDRVIITCQASEIIHSWLAWYQQKPGKAPKLLIYLASTLASGVPSRFSGSGSGAEFTLTISSLQPDDFATYYCQNVYLASTNGANFGQGTKLTVLG
Take B4: the dissociation constant (Kd) in the experiment with mouse VEGF164 [8] came to 27.3 pM; with rat VEGF164 [9], 748 pM; in the experiment with human VEGF165 [10], 625 pM; with rat VEGF164 [11], 21.9 pM; with mouse VEGF164 [12] it was 567 pM.
